Assay results published in FireProtDB (doi:10.1016/s0022-2836(02)00915-4).
Several values for one entry are separate records, joined by “and”; a condition that tells them apart may be missing. Equal values may be shown once.

B1: Protein GrpE, P09372 (parent)
chain: MSSKEQKTPEGQAPEEIIMDQHEEIEAVEPEASAEQVDPRDEKVANLEAQLAEAQTRERDGILRVKAEMENLRRRTELDIEKAHKFALEKFINELLPVIDSLDRALEVADKANPDMSAMVEGIELTLKSMLDVVRKFGVEVIAETNVPLDPNVHQAIAMVESDDVAPGNVLGIMQKGYTLNGRTIRAAMVTVAKAKA

Variants of: B1
Settings: Escherichia coli (strain K12); pH 6.8; Thermal; CD; potassium phosphate 10 mM; transition: 3; reversible: yes; structure 1DKG; whole UniProt chain shown

Row | Variant | Tm | change of melting temperature, mutant - wild type (higher = more stable)
1 | MSSKEQKTPEGQAPEEIIMDQHEEIEAVEPEASAEQVDPRDEKVANLEAQLAGAQTRERDGILRVKAEMENLRRRTELDIEKAHKFALEKFINELLPVIDSLDRALEVADKANPDMSAMVEGIELTLKSMLDVVRKFGVEVIAETNVPLDPNVHQAIAMVESDDVAPGNVLGIMQKGYTLNGRTIRAAMVTVAKAKA [E53G] | 81 °C | -2 °C
2 | MSSKEQKTPEGQAPEEIIMDQHEEIEAVEPEASAEQVDPRDEKVANLEAQLAEAQTRERDGILRVKAEMENLRRRTELDIEKAHKFALEKFINELLPVIDSLDRALEVADKANPDMSAMVEDIELTLKSMLDVVRKFGVEVIAETNVPLDPNVHQAIAMVESDDVAPGNVLGIMQKGYTLNGRTIRAAMVTVAKAKA [G122D] | – | -3 °C and 0 °C and -2 °C
